Test results from US20250197467A1 (BRIGHT PEAK THERAPEUTICS, published 2025).

T1: IL-18 receptor (IL-18Rαβ) on cells (UniProt Q13478 19-541; O95256 20-599, limits assumed)
T1 sequence (looked up) 1: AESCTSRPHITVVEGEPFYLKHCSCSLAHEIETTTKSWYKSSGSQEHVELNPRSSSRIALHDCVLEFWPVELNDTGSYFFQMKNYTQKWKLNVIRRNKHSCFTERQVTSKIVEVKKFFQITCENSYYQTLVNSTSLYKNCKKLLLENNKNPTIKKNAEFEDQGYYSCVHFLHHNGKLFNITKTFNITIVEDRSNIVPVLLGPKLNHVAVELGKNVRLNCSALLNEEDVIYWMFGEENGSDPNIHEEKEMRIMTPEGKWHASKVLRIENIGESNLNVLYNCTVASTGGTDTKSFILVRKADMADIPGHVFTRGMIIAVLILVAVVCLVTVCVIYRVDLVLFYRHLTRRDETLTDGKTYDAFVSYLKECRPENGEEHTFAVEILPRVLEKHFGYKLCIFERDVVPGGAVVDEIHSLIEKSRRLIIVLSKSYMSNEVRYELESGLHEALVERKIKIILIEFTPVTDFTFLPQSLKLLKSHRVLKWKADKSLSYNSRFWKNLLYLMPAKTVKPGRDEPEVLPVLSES
T1 sequence (looked up) 2: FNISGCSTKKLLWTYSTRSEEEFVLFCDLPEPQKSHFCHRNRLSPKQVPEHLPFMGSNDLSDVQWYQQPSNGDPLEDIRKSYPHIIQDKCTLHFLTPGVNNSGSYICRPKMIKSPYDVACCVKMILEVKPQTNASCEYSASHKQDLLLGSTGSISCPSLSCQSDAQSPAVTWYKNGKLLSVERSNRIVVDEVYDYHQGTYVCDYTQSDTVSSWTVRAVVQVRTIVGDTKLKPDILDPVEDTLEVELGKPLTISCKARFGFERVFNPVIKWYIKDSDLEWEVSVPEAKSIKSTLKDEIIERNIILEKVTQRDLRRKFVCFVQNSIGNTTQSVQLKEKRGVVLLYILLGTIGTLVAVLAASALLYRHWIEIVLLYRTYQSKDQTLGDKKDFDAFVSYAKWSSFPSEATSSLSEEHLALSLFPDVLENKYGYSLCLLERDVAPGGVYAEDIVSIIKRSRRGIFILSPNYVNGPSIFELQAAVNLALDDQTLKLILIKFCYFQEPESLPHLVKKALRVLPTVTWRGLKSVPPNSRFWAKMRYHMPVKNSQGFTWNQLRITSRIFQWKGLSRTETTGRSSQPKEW


How the values were obtained:
Assay in all cases: cell-based or functional assay
[1] = target: T1, IL-18 receptor (IL-18Rαβ) on cells
[2] = target: T1, IL-18 receptor (IL-18Rαβ) on cells; remark: listed apart in the source
[3] = target: T1, IL-18 receptor (IL-18Rαβ) on cells; remark: listed apart in the source

Row | Binder | IFNγ release NK-92 assay EC50 [1] | HEK-Blue IL-18R reporter EC50 [2] | EC50 (IFNγ stimulation, NK92) [3]
1 | C323 (ligand) MAAEPVEDNSINFVAMKFIDNTLYFIAEDDENLESDRGRRVANLVGGSGYFGKLKSKLSIIRNLNDQVLFIDQGNRPLFEDMTDSDARDNAPRTIFIISMYADSQPRGMAVAISVKCEKISTLSAENKIISFKEMNPPDNIKDTKSDIIFFQRSVPGHDNKMQFESSSYEGYFLAAEKERDLFKLILKKEDELGDRSIMFTVQNED | 102 nM | – | –
2 | C163 (ligand) YFGKLESKLSIIRNLNDQVLFIDQGNRPLFEDMTDSDARDNAPRTIFIISMYKDSQPRGMAVTISVKCEKISTLSAENKIISFKEMNPPDNIKDTKSDIIFFKRSVPGHDNKMQFESSSYEGYFLAAEKERDLFKLILKKEDELGDRSIMFTVQNED | – | 0.0015 nM | 0.093 nM
3 | C167 (ligand) YFGKLESKLSIIRNLNDQVLFIDQGNRPLFEDMTDSDARDNAPRTIFIISMYKDSQPRGMAVTISVKCEKISTLSAENKIISFKEMNPPDNIKDTKSDIIFFQRIVPGHDNKMQFESSSYEGYFLAAEKERDLFKLILKKEDELGDRSIMFTVQNED | – | 0.00537 nM | 0.103 nM
4 | C161 (ligand) YFGKLESRLSIIRNLNDQVLFIDQGNRPLFEDMTDSDARDNAPRTIFIISMYKDSQPRGMAVTISVKCEKISTLSAENKIISFKEMNPPDNIKDTKSDIIFFERSVPGHDNKMQFESSSYEGYFLAAEKERDLFKLILKKEDELGDRSIMFTVQNED | – | 0.00201 nM | 0.057 nM
5 | C165 (ligand) YFGKLESKLSIIRNLNDQVLFIDQGNRPLFEDMTDSDARDNAPRTIFIISMYKDRQPRGMAVTISVKCEKISTLSAENKIISFKEMNPPDNIKDTKSDIIFFQRSVPGHDNKMQFESSSYEGYFLAAEKERDLFKLILKKEDELGDRSIMFTVQNED | – | 0.00191 nM | 0.176 nM
6 | C162 (ligand) YFGKLESELSIIRNLNDQVLFIDQGNRPLFEDMTDSDARDNAPRTIFIISMYKDSQPRGMAVTISVKCEKISTLSAENKIISFKEMNPPDNIKDTKSDIIFFRRSVPGHDNKMQFESSSYEGYFLAAEKERDLFKLILKKEDELGDRSIMFTVQNED | – | 0.0023 nM | 0.061 nM
7 | C168 (ligand) YFGKLESKLSIIRNLNDQVLFIDQGNRPLFEDMTDSDARDNAPRTIFIISMYKDSQPRGMAVTISVKCEKISTLSAENKIISFKEMNPPDNIKDTKSDIIFFQRKVPGHDNKMQFESSSYEGYFLAAEKERDLFKLILKKEDELGDRSIMFTVQNED | – | 0.00773 nM | 0.098 nM
8 | C317 (ligand) MAAEPVEDNSINFVAMKFIDNTLYFIAEDDENLESDRGRRVANLVGYFGKLKSKLSIIRNLNDQVLFIDQGNRPLFEDMTDSDARDNAPRTIFIISMYADSQPRGMAVAISVKCEKISTLSAENKIISFKEMNPPDNIKDTKSDIIFFQRSVPGHDNKMQFESSSYEGYFLAAEKERDLFKLILKKEDELGDRSIMFTVQNED | 526 nM | – | –
9 | C316 (ligand) MAAEPVEDNSINFVAMKFIDNTLYFIAEDDENLESDSGRVANLVGYFGKLKSKLSIIRNLNDQVLFIDQGNRPLFEDMTDSDARDNAPRTIFIISMYADSQPRGMAVAISVKCEKISTLSAENKIISFKEMNPPDNIKDTKSDIIFFQRSVPGHDNKMQFESSSYEGYFLAAEKERDLFKLILKKEDELGDRSIMFTVQNED | 532 nM | – | –
10 | C316 + Matriptase (ligand) MAAEPVEDNSINFVAMKFIDNTLYFIAEDDENLESDSGRVANLVGYFGKLKSKLSIIRNLNDQVLFIDQGNRPLFEDMTDSDARDNAPRTIFIISMYADSQPRGMAVAISVKCEKISTLSAENKIISFKEMNPPDNIKDTKSDIIFFQRSVPGHDNKMQFESSSYEGYFLAAEKERDLFKLILKKEDELGDRSIMFTVQNED | 366 nM | – | –
11 | C318 (ligand) MAAEPVEDNSINFVAMKFIDNTLYFIAEDDENLESDSGRVANYFGKLKSKLSIIRNLNDQVLFIDQGNRPLFEDMTDSDARDNAPRTIFIISMYADSQPRGMAVAISVKCEKISTLSAENKIISFKEMNPPDNIKDTKSDIIFFQRSVPGHDNKMQFESSSYEGYFLAAEKERDLFKLILKKEDELGDRSIMFTVQNED | 21.9 nM | – | –
12 | C320 (ligand) MAAEPVEDNSINFVAMKFIDNTLYFIAEDDENLESDSGRPLGYFGKLKSKLSIIRNLNDQVLFIDQGNRPLFEDMTDSDARDNAPRTIFIISMYADSQPRGMAVAISVKCEKISTLSAENKIISFKEMNPPDNIKDTKSDIIFFQRSVPGHDNKMQFESSSYEGYFLAAEKERDLFKLILKKEDELGDRSIMFTVQNED | 158 nM | – | –
13 | C318 + Matriptase (ligand) MAAEPVEDNSINFVAMKFIDNTLYFIAEDDENLESDSGRVANYFGKLKSKLSIIRNLNDQVLFIDQGNRPLFEDMTDSDARDNAPRTIFIISMYADSQPRGMAVAISVKCEKISTLSAENKIISFKEMNPPDNIKDTKSDIIFFQRSVPGHDNKMQFESSSYEGYFLAAEKERDLFKLILKKEDELGDRSIMFTVQNED | 22.1 nM | – | –

Further lines, results first:

Row | IFNγ release NK-92 assay EC50 [1] | HEK-Blue IL-18R reporter EC50 [2] | EC50 (IFNγ stimulation, NK92) [3] | Binder
14 | 21.3 nM | – | – | C319 (ligand) MAAEPVEDNSINFVAMKFIDNTLYFIAEDDENLESDRGRRVANYFGKLKSKLSIIRNLNDQVLFIDQGNRPLFEDMTDSDARDNAPRTIFIISMYADSQPRGMAVAISVKCEKISTLSAENKIISFKEMNPPDNIKDTKSDIIFFQRSVPGHDNKMQFESSSYEGYFLAAEKERDLFKLILKKEDELGDRSIMFTVQNED
15 | 112 nM | – | – | C321 (ligand) MAAEPVEDNSINFVAMKFIDNTLYFIAEDDENLESDRGRRPLGYFGKLKSKLSIIRNLNDQVLFIDQGNRPLFEDMTDSDARDNAPRTIFIISMYADSQPRGMAVAISVKCEKISTLSAENKIISFKEMNPPDNIKDTKSDIIFFQRSVPGHDNKMQFESSSYEGYFLAAEKERDLFKLILKKEDELGDRSIMFTVQNED
16 | 205 nM | – | – | C322 (ligand) MAAEPVEDNSINFVAMKFIDNTLYFIAEDDENLESDSGRVANLVGGSGYFGKLKSKLSIIRNLNDQVLFIDQGNRPLFEDMTDSDARDNAPRTIFIISMYADSQPRGMAVAISVKCEKISTLSAENKIISFKEMNPPDNIKDTKSDIIFFQRSVPGHDNKMQFESSSYEGYFLAAEKERDLFKLILKKEDELGDRSIMFTVQNED
17 | – | 0.00202 nM | 0.028 nM | C160 (ligand) YFGKLESKLSIIRNLNDQVLFIDQGNRPLFEDMTDSDARDNAPRTIFIISMYADSQPRGMAVTISVKCEKISTLSAENKIISFKEMNPPDNIKDTKSDIIFFQRSVPGHANKMQFESSSYEGYFLAAEKERDLFKLILKKEDELGDRSIMFTVQNED
18 | – | 0.00314 nM | 0.414 nM | C164 (ligand) YFGKLESKLSIIRNLNDQVLFIDQGNRPLFEDMTDSDARDNAPRTIFIISMYKDHQPRGMAVTISVKCEKISTLSAENKIISFKEMNPPDNIKDTKSDIIFFQRSVPGHDNKMQFESSSYEGYFLAAEKERDLFKLILKKEDELGDRSIMFTVQNED
19 | – | 0.00473 nM | 0.098 nM | C166 (ligand) YFGKLESKLSIIRNLNDQVLFIDQGNRPLFEDMTDSDARDNAPRTIFIISMYKDTQPRGMAVTISVKCEKISTLSAENKIISFKEMNPPDNIKDTKSDIIFFQRSVPGHDNKMQFESSSYEGYFLAAEKERDLFKLILKKEDELGDRSIMFTVQNED
20 | 51.7 nM | – | – | C324 (ligand) MAAEPVEDNSINFVAMKFIDNTLYFIAEDDENLESDRGRRVANPLGYFGKLKSKLSIIRNLNDQVLFIDQGNRPLFEDMTDSDARDNAPRTIFIISMYADSQPRGMAVAISVKCEKISTLSAENKIISFKEMNPPDNIKDTKSDIIFFQRSVPGHDNKMQFESSSYEGYFLAAEKERDLFKLILKKEDELGDRSIMFTVQNED
